Reference: paper PMC12397995 (Blood, 2025)

T1: Factor VIIa (UniProt P08709 61-212; P08709 213-466, gamma-carboxyglutamate (γ35 printed; GLA domain))
T1 sequence (looked up) 1: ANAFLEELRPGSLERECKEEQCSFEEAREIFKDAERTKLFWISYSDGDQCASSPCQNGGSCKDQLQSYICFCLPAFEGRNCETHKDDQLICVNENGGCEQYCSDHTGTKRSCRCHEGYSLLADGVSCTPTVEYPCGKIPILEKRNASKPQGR
T1 sequence (looked up) 2: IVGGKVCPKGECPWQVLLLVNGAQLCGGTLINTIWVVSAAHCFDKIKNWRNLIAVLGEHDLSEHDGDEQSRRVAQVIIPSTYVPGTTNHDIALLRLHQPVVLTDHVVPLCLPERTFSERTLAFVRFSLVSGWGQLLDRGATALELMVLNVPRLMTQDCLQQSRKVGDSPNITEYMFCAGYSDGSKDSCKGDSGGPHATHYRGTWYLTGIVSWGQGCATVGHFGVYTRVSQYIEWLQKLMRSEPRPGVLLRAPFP

B1: Recombinant, membrane-anchored tissue factor (TF residues 3–244) fused to E. coli maltose-binding protein (receptor, UniProt P13726 35-276, looked up)
chain: TTNTVAAYNLTWKSTNFKTILEWEPKPVNQVYTVQISTKSGDWKSKCFYTTDTECDLTDEIVKDVKQTYLARVFSYPAGNVESTGSAGEPLYENSPEFTPYLETNLGQPTIQSFEQVGTKVNVTVEDERTLVRRNNTFLSLRDVFGKDLIYTLYYWKSSSSGKKTAKTNTNEFLIDVDKGENYCFSVQAVIPSRTVNRKSTDSPVECMGQEKGEFREIFYIIGAVVFVVIILVIILAISLHK
B2: Fab fragment of the non-inhibitory anti-TF antibody 10H10 (Fab, V domains shown)
VH: QVHLQQSGAELMKPGASVKISCKASGYTFITYWIEWVKQRPGHGLEWIGDILPGSGSTNYNENFKGKATFTADSSSNTAYMQLSSLTSEDSAVYYCARSGYYGNSGFAYWGQGTLVTVSA
VL: DIVMTQSPSSLTVTAGEKVTMSCKSSQSLLSSGNQKNYLTWYQQIPGQPPKLLIYWASTRESGVPDRFTGSGSGTDFTLTINSVQAEDLAVYYCQNDYTYPLTFGAGTKLELK

Tests used:
[1] = target: T1, Factor VIIa; assay: cryo-EM structure
[2] = target: Recombinant, membrane-anchored tissue factor (TF residues 3–244) fused to E. coli maltose-binding protein (UniProt P13726); assay: cryo-EM structure

| Binder | binding result [1] | binding result [2] |
| --- | --- | --- |
| B1 | binds | – |
| B2 | – | binds |
